Laboratory results reported in the MegaScale stability set (Tsuboyama et al. 2023).

B1: 6NMW (parent)
chain: QGDIVVALYPYDGIHPDDLSFKKGEKMKVLEEHGEWWKAKSLLTKKEGFIPSNYVAKLN

Variants of: B1
Test: folding stability dG (cDNA display proteolysis); higher = more stable
Conditions: PBS, room temperature

Folding stability dG [kcal/mol] of substitutions, site by site:
G24: M 1.07 | T 0.282 | Q 0.576 | A 1.25 | R 0.941 | H 2.15 | L 1.02 | C 3.62 | D 2.1 | E 1.16 | N 2.19 | F 2.13 | Y 2.25 | K 0.476 | W 2.51 | S 1.3
W37: A 2.24 | G -0.016 | V 3.04 | C 3.04 | N 1.19 | P 1.7 | I 3.96 | M 4.7 | H 2.59 | R 2.28 | S 2.26 | T 2.67 | K 3.8 | Q 1.99 | D 0.168 | F 4.79 | E -0.118
V29: Y 0.219 | P 0.224 | F 1.05 | T 0.988 | R 0.08 | A 0.496 | K 1.25 | M 1.93 | C 1.16 | W -0.028 | Q 0.108 | L 4.64 | S -0.702
E35: A 4.01 | T 3.73 | V 3.94 | K 3.94 | S 3.82 | C 4.75 | P 3.64 | L 4.23 | W 4.11 | H 4.61 | I 3.97 | Q 3.92 | N 4.01 | Y 4.96 | M 4.06 | R 3.59 | G 3.14
F21: M 1.22 | Q -0.217 | V 1.74 | L -0.236 | W -0.416 | Y -0.495 | I 0.968 | C 0.758
L30: M 2.85 | Q 1.56 | K 0.883 | T 2.04 | N 0.519 | G 0.263 | V 2.34 | S 1.5 | E 1.21 | R 0.866 | Y 2.27 | W 1.5 | C 2.42 | I 3.29 | H 0.943 | A 1.01 | F 2.37 | D 0.53
E25: L -0.25 | G -0.389 | D 2.36 | Y 0.16 | V -0.121 | S 0.621 | A 1.21 | Q 0.918 | N 0.344 | T 0.615 | C 1.3 | F -0.064 | R 0.331 | I -0.618 | H 0.959 | W 1.22 | M 0.74
E32: K 4.72 | D 4.38 | L 4.21 | P 2.54 | G 3.33 | F 4.1 | C 4.44 | W 3.48 | Q 4.09 | H 3.54 | I 4.6 | M 4.65 | V 4.48 | R 4.29 | N 3.83 | T 3.95 | Y 4.42 | A 4.31
E31: G 2.77 | D 3.05 | M 3.05 | C 4.09 | K 2.67 | R 2.56 | I 2.98 | P -0.549 | L 2.67 | A 3.46 | Y 3.07 | F 3.14 | H 2.63 | T 2.69 | Q 3.11 | V 2.64 | W 3.2
K28: H 3.02 | G 1.31 | D 1.21 | S 2.77 | R 4.26 | W 4.43 | V 4.85 | M 4.6 | F 3.91 | A 3.21 | E 4.07 | C 3.9 | N 2.02 | Y 4.2 | T 3.27
W36: K 3.49 | E 1.14 | D 0.269 | M 3.29 | L 2.85 | I 3.52 | F 3.29 | G 0.695 | V 3.3 | S 2.15 | C 3.06
